The subject of this assay is activated human CD4+ T cells. Description: Cytokine production (ELISA) by human CD4+ T cells stimulated with anti-CD3/CD28 beads and Delta1 beads, with added soluble protein. It is filed as cell-based. To be noted: increasing amounts of soluble protein in culture medium, 3 days. As for the experimental part: M450 Streptavidin Dynabead™ magnetic beads (Dynal, USA) were coated with an anti-human-IgG4 biotinylated monoclonal antibody (BD Bioscience, 555879) by rotating them in the presence of the antibody for 30 minutes at room temperature. Beads were washed three times with PBS (1 ml). They were further incubated with hDelta1-hIgG4 (see Example 1 above) for 2 hours at room temperature and then washed three times with PBS (1 ml).
Human peripheral blood mononuclear cells (PBMC) were purified from blood using Ficoll-Paque separation medium (Pharmacia). Briefly, 28 ml of blood were overlaid on 21 ml of Ficoll-Paque separation medium and centrifuged at 18-20° C. for 40 minutes at 400 g. PBMC were recovered from the interface and washed 3 times before use for CD4+ T cell purification.
The CD4+ T cells were incubated in triplicates in a 96-well-plate (flat bottom) at 10^5 CD4/well/200 μl in RPMI medium containing 10% FCS, glutamine, penicillin, streptomycin and β2-mercaptoethanol.
Cytokine production was induced by stimulating the cells with anti-CD3/CD28 T cell expander beads from Dynal at a 1:1 ratio (bead/cell) in the presence of beads coated with hDelta1-IgG4Fc fusion protein (Example 1 above) at a 5:1 ratio (beads/cell). In some wells, increasing amounts of soluble hdelta1-IgG4Fc fusion protein were also added.
The supernatants were removed after 3 days of incubation at 37° C./5% CO2/humidified atmosphere and cytokine production was evaluated by ELISA using Pharmingen kits OptEIA Set human IL10 (catalog No. 555157), OptEIA Set human IL-5 (catalog No. 555202) for IL-10 and IL-5 respectively according to the manufacturer's instructions.
Human peripheral blood mononuclear cells (PBMC) were purified from blood using Ficoll-Paque separation medium (Pharmacia). […]
The supernatants were removed after 3 days of incubation at 37° C./5% CO2/humidified atmosphere and cytokine production was evaluated by ELISA using Pharmingen kits OptEIA Set human IL10 (Catalog No. 555157), OptEIA Set human IL-5 (Catalog No. 555202) for IL-10 and IL-5 respectively according to the manufacturer's instructions. […]

B1: rat Notch1-hIgG1Fc: R&D Systems Catalog No 1057-TK; 12 amino terminal EGF domains of rat Notch-1 fused to the Fc region of human IgG (protein)
chain: ARGLRCSQPSGTCLNGGRCEVANGTEACVCSGAFVGQRCQDPSPCLSTPCKNAGTCYVVDHGGIVDYACSCPLGFSGPLCLTPLANACLANPCRNGGTCDLLTLTEYKCRCPPGWSGKSCQQADPCASNPCANGGQCLPFESSYICGCPPGFHGPTCRQDVNECSQNPGLCRHGGTCHNEIGSYRCACRATHTGPHCELPYVPCSPSPCQNGGTCRPTGDTTHECACLPGFAGQNCEENVDDCPGNNCKNGGACVDGVNTYNCRCPPEWTGQYCTEDVDECQLMPNACQNGGTCHNSHGGYNCVCVNGWTGEDCSENIDDCASAACFQGATCHDRVASFYCECPHGRTGLLCHLNDACISNPCNEGSNCDTNPVNGKAICTCPSGYTGPACSQDVDECALGANPCEHAGKCLNTLGSFECQCLQGYTGPRCEIDVNECISNPCQNDATCLDQIGEFQCICMPGYEGVYCEIEGRMD
modifications: left off: a dimerising Fc or GST
notes: R&D Systems Catalog No 1057-TK; 12 amino terminal EGF domains of rat Notch-1 fused to the Fc region of human IgG
Consider B1, for which the “effect of added soluble protein on the IL-10 enhancement by bead-immobilised Delta1” value is reported as “inhibited”.

Source of the values: patent publication US20050137130A1, “Medical treatment” (priority 2001, published 2005).
